Assay [1] addresses human insulin receptor isoform A (human). The assay can be described thus: radioligand binding; competition with human 125I-insulin on IR-A in membranes of human IM-9 lymphocytes; non-linear regression, one-site fit, depletion of free ligand taken into account; Kd of 125I-insulin set to 0.3 nM.
In assay [2] the target is human insulin-like growth factor type I receptor (human). Kind of assay: radioligand binding; competition with human 125I-IGF-I on human IGF-1R in membranes of mouse embryonic fibroblasts (IGF-1R knock-out, transfected with human IGF-1R); non-linear regression, one-site fit; Kd of 125I-IGF-I set to 0.2 nM.
In assay [3] the target is human insulin receptor isoform B (human). Kind of assay: radioligand binding; human IR-B in membranes of mouse embryonic fibroblasts (IGF-I receptor knock-out, solely expressing human IR-B); non-linear regression, one-site fit, depletion of free ligand taken into account.

Our source for the Kd values is publication PMC5076530.

pKd: −log10 of the molar value.

With [N29,S39_PQ]IGF-II (ligand), the results for the pKd in assay [1] and in assay [2] were 7.77 and 8.88, respectively.

For the substance [N29,R34_GS,S39_PQ]IGF-II (ligand), the results for the pKd in assay [1] and in assay [2] were 7.70 and 8.50, respectively.

For “IGF-II (recombinant, with an additional glycine at the N terminus) (ligand)”, the negative logarithm of the Kd (pKd) in assay [1] is 8.52; in assay [3] it was 7.36; in assay [2] it was 8.64.

For the substance [N29]IGF-II (ligand), the negative logarithm of the Kd (pKd) was 7.99 in assay [1], 6.97 in assay [3] and 8.34 in assay [2].

As to [R34_GS,S39_PQ]IGF-II (ligand), the values for the pKd in assay [1] and in assay [2] were 7.63 and 8.25, respectively.

Take [R34_GS]IGF-II (ligand): the pKd is 7.81 in assay [1] and 8.38 in assay [2].

As to [S39_PQ]IGF-II (ligand), the pKd in assay [1] is 7.42; in assay [2], 8.30.
